Read-outs that look alike come from different tables or passages of the source. Values belong to the molecule of their own block, whether it stands above or below them.
Legend:
[1] = molecular target: AM2 receptor (CLR-RAMP3) (human) (UniProt Q16602)
[2] = molecular target: AM1 receptor (CLR-RAMP2) (human) (UniProt Q16602)
[3] = molecular target: CGRP receptor (CLR-RAMP1) (human) (UniProt Q16602)
[4] = molecular target: AM2 receptor (CLR-RAMP3) (human) (UniProt Q16602); remark: listed apart in the source
[5] = molecular target: AM1 receptor (CLR-RAMP2) (human) (UniProt Q16602); remark: listed apart in the source
[6] = molecular target: CGRP receptor (CLR-RAMP1) (human) (UniProt Q16602); remark: listed apart in the source
[7] = molecular target: AM2 receptor (CLR-RAMP3) (human) (UniProt Q16602); remark: listed apart in the source
[8] = molecular target: AM1 receptor (CLR-RAMP2) (human) (UniProt Q16602); remark: listed apart in the source
[9] = molecular target: CGRP receptor (CLR-RAMP1) (human) (UniProt Q16602); remark: listed apart in the source
[10] = molecular target: calcitonin receptor (CTR) (human)
Chain of calcitonin receptor (CTR) (human) (P30988 25-474): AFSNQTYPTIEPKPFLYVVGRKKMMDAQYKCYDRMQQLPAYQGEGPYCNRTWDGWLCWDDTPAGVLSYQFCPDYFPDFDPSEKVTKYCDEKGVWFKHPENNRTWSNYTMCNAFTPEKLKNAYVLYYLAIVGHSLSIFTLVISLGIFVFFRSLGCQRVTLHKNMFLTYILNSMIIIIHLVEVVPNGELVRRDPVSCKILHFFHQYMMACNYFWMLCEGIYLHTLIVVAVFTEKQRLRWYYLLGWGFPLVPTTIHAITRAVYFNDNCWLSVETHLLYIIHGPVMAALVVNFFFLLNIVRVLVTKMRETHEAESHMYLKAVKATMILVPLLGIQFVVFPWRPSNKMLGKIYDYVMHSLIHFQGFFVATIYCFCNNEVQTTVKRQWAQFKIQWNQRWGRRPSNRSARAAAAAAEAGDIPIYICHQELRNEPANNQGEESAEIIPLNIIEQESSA

[11] = molecular target: amylin1 receptor (CTR-RAMP1) (human) (UniProt O60894)
Chain of amylin1 receptor (CTR-RAMP1) (human) (O60894 whole entry, looked up): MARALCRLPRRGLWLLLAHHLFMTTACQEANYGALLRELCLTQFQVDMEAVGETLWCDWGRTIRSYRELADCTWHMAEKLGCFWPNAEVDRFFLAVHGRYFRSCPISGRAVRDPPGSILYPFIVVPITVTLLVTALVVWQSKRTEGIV

Chain of CGRP receptor (CLR-RAMP1) (human) (Q16602 23-461, chain 1 of 2): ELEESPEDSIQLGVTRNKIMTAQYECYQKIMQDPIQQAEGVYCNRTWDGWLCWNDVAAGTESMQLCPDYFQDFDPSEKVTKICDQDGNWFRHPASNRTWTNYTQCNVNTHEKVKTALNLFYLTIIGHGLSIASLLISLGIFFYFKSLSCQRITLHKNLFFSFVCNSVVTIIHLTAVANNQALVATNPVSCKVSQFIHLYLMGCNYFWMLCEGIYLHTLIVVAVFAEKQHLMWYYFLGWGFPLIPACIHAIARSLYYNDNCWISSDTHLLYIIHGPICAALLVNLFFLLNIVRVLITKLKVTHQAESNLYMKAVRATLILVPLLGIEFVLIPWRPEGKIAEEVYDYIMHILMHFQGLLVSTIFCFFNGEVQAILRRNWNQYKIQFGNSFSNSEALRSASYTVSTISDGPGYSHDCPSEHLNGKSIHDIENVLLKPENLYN
Chain of CGRP receptor (CLR-RAMP1) (human) (O60894 27-148, chain 2 of 2, further chain): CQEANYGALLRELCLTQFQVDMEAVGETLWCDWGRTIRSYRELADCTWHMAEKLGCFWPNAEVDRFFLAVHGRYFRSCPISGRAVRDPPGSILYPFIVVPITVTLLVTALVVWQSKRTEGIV
Chain of AM1 receptor (CLR-RAMP2) (human) (Q16602 23-461, chain 1 of 2): as the sequence (Q16602 23-461, chain 1 of 2) above
Chain of AM1 receptor (CLR-RAMP2) (human) (O60895 43-175, chain 2 of 2, further chain): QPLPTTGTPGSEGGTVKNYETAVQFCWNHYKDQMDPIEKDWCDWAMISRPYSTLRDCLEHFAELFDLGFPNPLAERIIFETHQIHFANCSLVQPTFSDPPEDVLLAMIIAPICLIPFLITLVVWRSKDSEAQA
Chain of AM2 receptor (CLR-RAMP3) (human) (Q16602 23-461, chain 1 of 2): as the sequence (Q16602 23-461, chain 1 of 2) above
Chain of AM2 receptor (CLR-RAMP3) (human) (O60896 24-148, chain 2 of 2, further chain): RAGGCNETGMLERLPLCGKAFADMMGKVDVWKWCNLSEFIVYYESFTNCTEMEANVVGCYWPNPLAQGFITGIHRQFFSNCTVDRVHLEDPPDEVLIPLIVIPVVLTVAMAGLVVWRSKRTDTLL

- pEC50 of cAMP signaling, end-point concentration-response (CAMYEL BRET, COS-7) [1]: 8.72
- pEC50 of cAMP signaling, end-point concentration-response (CAMYEL BRET, COS-7) [2]: 7.34
- pEC50 of cAMP signaling, end-point concentration-response (CAMYEL BRET, COS-7) [3]: 8.09
Molecule: AM2(8-22)-AM(29-38)-AM2(34-47) (peptide)

- pEC50 of cAMP signaling, end-point concentration-response (CAMYEL BRET, COS-7) [4]: 9.33
- pEC50 of cAMP signaling, end-point concentration-response (CAMYEL BRET, COS-7) [5]: 8.24
- pEC50 of cAMP signaling, end-point concentration-response (CAMYEL BRET, COS-7) [6]: 8.86
- pEC50 of cAMP signaling, end-point concentration-response (CAMYEL BRET, COS-7) [7]: 9.27
- pEC50 of cAMP signaling, end-point concentration-response (CAMYEL BRET, COS-7) [8]: 8.51
- pEC50 of cAMP signaling, end-point concentration-response (CAMYEL BRET, COS-7) [9]: 9.17
Molecule: AM2/IMD(8-47) (peptide)

- pEC50 of cAMP signaling, end-point concentration-response (CAMYEL BRET, COS-7) [7]: 8.74
- pEC50 of cAMP signaling, end-point concentration-response (CAMYEL BRET, COS-7) [8]: 7.59
- pEC50 of cAMP signaling, end-point concentration-response (CAMYEL BRET, COS-7) [9]: 8.22
Molecule: AM2/IMD(8-47) [R23K/R33K] (peptide)

- pEC50 of cAMP signaling, end-point concentration-response (CAMYEL BRET, COS-7) [7]: 9
- pEC50 of cAMP signaling, end-point concentration-response (CAMYEL BRET, COS-7) [8]: 7.62
- pEC50 of cAMP signaling, end-point concentration-response (CAMYEL BRET, COS-7) [9]: 8.51
Molecule: AM2/IMD(8-47) [R23K] (peptide)

- pEC50 of cAMP signaling, end-point concentration-response (CAMYEL BRET, COS-7) [7]: 7.75
- pEC50 of cAMP signaling, end-point concentration-response (CAMYEL BRET, COS-7) [8]: 6.9
- pEC50 of cAMP signaling, end-point concentration-response (CAMYEL BRET, COS-7) [9]: 7.5
Molecule: AM2/IMD(8-47) [R23Q/R33K] (peptide)

- pEC50 of cAMP signaling, end-point concentration-response (CAMYEL BRET, COS-7) [7]: 9.01
- pEC50 of cAMP signaling, end-point concentration-response (CAMYEL BRET, COS-7) [8]: 7.8
- pEC50 of cAMP signaling, end-point concentration-response (CAMYEL BRET, COS-7) [9]: 8.54
Molecule: AM2/IMD(8-47) [R33K] (peptide)

- pEC50 of cAMP signaling, end-point concentration-response (CAMYEL BRET, COS-7) [4]: 9.63
- pEC50 of cAMP signaling, end-point concentration-response (CAMYEL BRET, COS-7) [5]: 9.54
- pEC50 of cAMP signaling, end-point concentration-response (CAMYEL BRET, COS-7) [7]: 9.48
- pEC50 of cAMP signaling, end-point concentration-response (CAMYEL BRET, COS-7) [8]: 9.52
Molecule: AM(13-52) (peptide)

Further lines, the molecule ahead of its results:

Molecule: AM2/IMD(1-47) (peptide)
- pEC50 of cAMP signaling, end-point concentration-response (CAMYEL BRET, COS-7) [4]: 8.9
- pEC50 of cAMP signaling, end-point concentration-response (CAMYEL BRET, COS-7) [5]: 7.66
- pEC50 of cAMP signaling, end-point concentration-response (CAMYEL BRET, COS-7) [6]: 7.81

Molecule: AM2/IMD-53 (peptide)
- pEC50 of cAMP signaling, end-point concentration-response (CAMYEL BRET, COS-7) [4]: 8.84
- pEC50 of cAMP signaling, end-point concentration-response (CAMYEL BRET, COS-7) [5]: 7.94
- pEC50 of cAMP signaling, end-point concentration-response (CAMYEL BRET, COS-7) [6]: 8.36

Molecule: AM(13-38)-AM2(23-33)-AM(39-52) (peptide)
- pEC50 of cAMP signaling, end-point concentration-response (CAMYEL BRET, COS-7) [1]: 8.42
- pEC50 of cAMP signaling, end-point concentration-response (CAMYEL BRET, COS-7) [2]: 8.26
- pEC50 of cAMP signaling, end-point concentration-response (CAMYEL BRET, COS-7) [3]: 8.08

Molecule: βCGRP(1-37) (from UniProt P10092 82-118) (peptide)
- pEC50 of cAMP signaling, end-point concentration-response (CAMYEL BRET, COS-7) [10]: 7.79

B1: rat Amylin(1-37) (peptide)
peptide: KCNTATCATQRLANFLVRSSNNLGPVLPPTNVGSNTY
- pEC50 of cAMP signaling, end-point concentration-response (CAMYEL BRET, COS-7) [11]: 9.72
- pEC50 of cAMP signaling, end-point concentration-response (CAMYEL BRET, COS-7) [10]: 7.63

Source: PMC11102832
